According to patent EP4279092A1 (Bayer AG, dated 2023):

B1: Ac-225-macropa-Pelgifatamab (CAR 0.8) (antibody, V domains shown)
VH: QVQLVESGGGVVQPGRSLRLSCAASGFAFSRYGMHWVRQAPGKGLEWVAVIWYDGSNKYYADSVKGRFTISRDNSKNTQYLQMNSLRAEDTAVYYCARGGDFLYYYYYGMDVWGQGTTVTVSS
VL: DIQMTQSPSSLSASVGDRVTITCRASQGISNYLAWYQQKTGKVPKFLIYEASTLQSGVPSRFSGGGSGTDFTLTISSLQPEDVATYYCQNYNSAPFTFGPGTKVDIKR
modifications: macropa chelator complexing 225Ac, coupled via thiourea to the terminal amino group of a Lysine residue; chelator-to-antibody ratio 0.8; chain and position not stated
B2: Ac-225-DOTA-Pelgifatamab CAR 5.7 (antibody, V domains shown)
VH: B1 VH
VL: B1 VL
modifications: p-SCN-Bn-DOTA chelator complexing 225Ac, coupled to the terminal amino group of Lysine residues; chelator-to-antibody ratio 5.7; chain and positions not stated
B3: Ac-225-DOTA-Pelgifatamab CAR 12.7 (antibody, V domains shown)
VH: B1 VH
VL: B1 VL
modifications: p-SCN-Bn-DOTA chelator complexing 225Ac, coupled to the terminal amino group of Lysine residues; chelator-to-antibody ratio 12.7; chain and positions not stated

biological target: prostate-specific membrane antigen (PSMA) on prostate cancer cell lines (human, UniProt Q04609 1-750); test: cell-based or functional assay
Sequence (Q04609 whole entry): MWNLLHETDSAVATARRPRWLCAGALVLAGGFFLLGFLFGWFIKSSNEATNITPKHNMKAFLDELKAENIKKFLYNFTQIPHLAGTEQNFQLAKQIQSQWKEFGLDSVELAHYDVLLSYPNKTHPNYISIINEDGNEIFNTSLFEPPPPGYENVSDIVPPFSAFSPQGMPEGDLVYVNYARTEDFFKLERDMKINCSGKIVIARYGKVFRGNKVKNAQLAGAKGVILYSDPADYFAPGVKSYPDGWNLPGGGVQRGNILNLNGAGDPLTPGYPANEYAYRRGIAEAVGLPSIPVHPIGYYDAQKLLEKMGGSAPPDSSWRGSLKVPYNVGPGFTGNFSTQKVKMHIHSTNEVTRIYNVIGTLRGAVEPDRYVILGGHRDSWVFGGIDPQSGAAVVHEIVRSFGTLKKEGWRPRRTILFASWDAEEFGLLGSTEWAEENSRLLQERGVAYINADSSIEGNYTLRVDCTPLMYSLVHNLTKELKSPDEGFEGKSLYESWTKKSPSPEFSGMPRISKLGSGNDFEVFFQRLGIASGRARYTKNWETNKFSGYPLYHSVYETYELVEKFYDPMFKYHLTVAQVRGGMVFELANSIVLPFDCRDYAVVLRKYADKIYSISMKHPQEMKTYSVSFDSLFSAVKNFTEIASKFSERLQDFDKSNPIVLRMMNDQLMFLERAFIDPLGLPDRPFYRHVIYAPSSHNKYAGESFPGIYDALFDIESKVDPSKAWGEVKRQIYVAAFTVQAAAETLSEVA

| Binder | IC50, in-vitro cytotoxicity (CellTiterGlo), C4-2 cells [kBq/ml] | IC50, in-vitro cytotoxicity (CellTiterGlo), MDA-PCa-2b cells [kBq/ml] |
| --- | --- | --- |
| B1 | 0.09 | 0.05 |
| B2 | 0.15 | 0.09 |
| B3 | 0.29 | 0.2 |
